The results in this text go back to patent US20170306037A1 (Novartis, published 2017).

Where a chain is given by its changes, count along the chain named.

For test [1], the target named is cyno GITR (cGITR), form not stated (cynomolgus monkey). As to the kind of experiment: Biacore (SPR). (In general: SPR reads the build-up and loss of mass on a sensor chip optically.)
The next test concerns the target T1, BCMA (human, UniProt Q02223).
T1 sequence (receptor, looked up): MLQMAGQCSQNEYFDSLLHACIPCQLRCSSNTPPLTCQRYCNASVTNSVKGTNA
As to the kind of experiment: specificity ELISA, bacterial lysate on HisGrab nickel plate. The procedure:
(§1) For the specificity ELISA, a crude cell lysate was made from bacteria expressing members of the TNFRSF family. To prevent nonspecific binding to the plate 50 μL of 5% BSA was added per mL of bacterial lysate. […] The plate was then rinsed three times with PBST, then MAB was diluted to 0.5 μg/mL in 10% FBS in PBS and 100 μL was added to each well. The plate was incubated for 1 hour at room temperature and then rinsed three times with PBST. Anti-human kappa antibody (Sigma #A7164) conjugated to HRP was diluted 1:5000 in 1:1 PBST: 10% FBS in PBS and 100 μL added to each well. The plate was incubated for 1 hour at room temperature, and then washed three times with PBST. 100 μL of SureBlue TMB substrate was added to each well and the plate was incubated for about 10 min at room temperature before stopping the reaction with 100 μL /well of 2N H₂SO₄.
For orientation: In an ELISA, binding on a coated surface is turned into a signal by an enzyme label.

The target of another test is DR5 (human, UniProt O14763). Described as above. As to the method:
as §1

For the next test, the target named is T2, CD137 (human, UniProt Q07011).
T2 construct: also called TNFRSF9
The description is as above. The procedure: as §1

For another test, the target named is T3, DcR3 (human, UniProt O95407).
T3 sequence (receptor, looked up): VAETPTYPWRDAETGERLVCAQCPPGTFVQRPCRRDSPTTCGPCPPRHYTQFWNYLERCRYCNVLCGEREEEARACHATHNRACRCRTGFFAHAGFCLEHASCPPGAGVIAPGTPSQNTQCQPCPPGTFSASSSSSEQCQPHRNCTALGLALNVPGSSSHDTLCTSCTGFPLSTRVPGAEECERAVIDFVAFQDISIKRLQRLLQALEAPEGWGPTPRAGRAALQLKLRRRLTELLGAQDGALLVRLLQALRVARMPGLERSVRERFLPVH
Described as above. As to the method:
as §1

Another test addresses T4, NGFR (human, UniProt P08138).
T4 sequence (receptor, looked up): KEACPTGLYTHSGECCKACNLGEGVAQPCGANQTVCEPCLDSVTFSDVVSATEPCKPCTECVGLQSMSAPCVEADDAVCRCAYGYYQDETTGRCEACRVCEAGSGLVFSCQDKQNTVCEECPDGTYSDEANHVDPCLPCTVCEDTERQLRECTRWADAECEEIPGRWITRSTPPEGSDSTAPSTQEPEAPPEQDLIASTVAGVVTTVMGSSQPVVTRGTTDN
The test is described as above. As to the method: as §1

In another test the target is TNFR3 (human, UniProt P36941). The test is described as above. The procedure: as §1
TNFR3, sequence (P36941 31-227 limits assumed): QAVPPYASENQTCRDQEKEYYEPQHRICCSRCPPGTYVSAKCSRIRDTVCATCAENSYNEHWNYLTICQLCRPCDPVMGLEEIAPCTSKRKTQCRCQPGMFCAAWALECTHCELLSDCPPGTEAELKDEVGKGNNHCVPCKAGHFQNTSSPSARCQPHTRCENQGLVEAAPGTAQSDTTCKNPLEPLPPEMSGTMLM
For another test, the target named is T5, OX40 (human, UniProt P43489).
T5 sequence (receptor, looked up): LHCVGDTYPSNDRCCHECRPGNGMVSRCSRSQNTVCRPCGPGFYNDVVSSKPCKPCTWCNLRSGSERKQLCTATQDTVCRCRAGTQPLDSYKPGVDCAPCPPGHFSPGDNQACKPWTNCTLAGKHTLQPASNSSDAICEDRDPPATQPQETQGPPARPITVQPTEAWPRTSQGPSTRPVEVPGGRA
The description is as above. As to the method:
as §1

In the next test the target is T6, CD27 (human, UniProt P26842).
T6 sequence (receptor, looked up): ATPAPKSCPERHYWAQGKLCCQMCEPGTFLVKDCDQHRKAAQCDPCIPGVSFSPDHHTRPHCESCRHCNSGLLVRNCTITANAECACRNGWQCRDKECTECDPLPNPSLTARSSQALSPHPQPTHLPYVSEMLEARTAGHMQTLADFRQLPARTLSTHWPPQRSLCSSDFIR
The test is described as above. The procedure: as §1

The next test has as its target T7, TNFR1 (human, UniProt P19438).
T7 sequence (receptor, looked up): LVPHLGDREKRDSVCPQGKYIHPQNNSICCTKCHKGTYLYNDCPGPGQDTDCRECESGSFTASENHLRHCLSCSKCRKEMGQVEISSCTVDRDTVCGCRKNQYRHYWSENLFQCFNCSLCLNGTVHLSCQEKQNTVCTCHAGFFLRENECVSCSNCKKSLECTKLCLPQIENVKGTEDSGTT
The description is as above. As to the method:
as §1

For another test, the target named is T8, DR3 (human, UniProt Q93038).
T8 sequence (receptor, looked up): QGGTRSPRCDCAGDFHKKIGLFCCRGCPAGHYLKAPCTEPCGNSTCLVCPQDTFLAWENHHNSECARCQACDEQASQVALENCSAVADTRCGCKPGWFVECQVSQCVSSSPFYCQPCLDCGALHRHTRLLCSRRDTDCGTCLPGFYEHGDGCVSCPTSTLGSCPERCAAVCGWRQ
The description is as above. The procedure:
as §1

In the next test the target is T9, TACI (human, UniProt O14836).
T9 sequence (receptor, looked up): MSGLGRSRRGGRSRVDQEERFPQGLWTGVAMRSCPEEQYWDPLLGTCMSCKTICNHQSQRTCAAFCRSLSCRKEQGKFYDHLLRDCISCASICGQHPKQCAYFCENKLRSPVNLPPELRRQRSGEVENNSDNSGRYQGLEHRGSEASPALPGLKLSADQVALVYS
Described as above. The procedure: as §1

B1: MAB4 (IgG1 kappa) (antibody, V domains shown)
VH: EVQLVESGGGLVQSGGSLRLSCAASGFSLSSYGVDWVRQAPGKGLEWVGVIWGGGGTYYASSLMGRFTISRDNSKNTLYLQMNSLRAEDTAVYYCAKHAYGHDGGFAMDYWGQGTLVTVSS
VL: EIVMTQSPATLSVSPGERATLSCRASESVSSNVAWYQQRPGQAPRLLIYGASNRATGIPARFSGSGSGTDFTLTISRLEPEDFAVYYCGQSYSYPFTFGQGTKLEIKR
Regarding B1, the “fold lower binding affinity for cyno GITR than for human GITR” value in test [1] lay in the range of 2 to 3 fold. The binding result in the test with BCMA, with DR5, with CD137, with DcR3, with NGFR and in the test with TNFR3 was “no binding (tested: not on the sheet; paragraph 335: 0.5 µg/mL)” each time. The binding result in the test with OX40, with CD27, with TNFR1, with DR3 and with TACI was “no binding (tested: not on the sheet; paragraph 335: 0.5 µg/mL)” throughout.

B2: MAB5 (IgG1 kappa) (antibody, V domains shown)
VH: B1 VH with V48L, A60T
VL: B1 VL
notes: also called MABS (misprint of MAB5)
For B2, the “fold lower binding affinity for cyno GITR than for human GITR” value in test [1] was 2 to 3 fold. Also, the binding result in the test with BCMA, with DR5, with CD137, in the test with DcR3, in the test with NGFR and with TNFR3 was “no binding (tested: not on the sheet; paragraph 335: 0.5 µg/mL)” each time. Moreover, the binding result with OX40, with CD27, with TNFR1, with DR3 and with TACI was “no binding (tested: not on the sheet; paragraph 335: 0.5 µg/mL)” in each case.
